From paper PMC2747274 (2009)

What was measured:
Assay in all cases: FP
[1] = target: fluorescently labeled histone H3 tail peptide, monomethylated at K27 (UniProt P68431, monomethyl-lysine at K27; fluorescent label (position not given))
[2] = target: fluorescently labeled histone H3 tail peptide, dimethylated at K9 (UniProt P68431, dimethyl-lysine at K9; fluorescent label (position not given))
[3] = target: fluorescently labeled histone H4 tail peptide, dimethylated at K20 (UniProt P62805, dimethyl-lysine at K20; fluorescent label (position not given))
[4] = target: fluorescently labeled histone H3 tail peptide, dimethylated at K4 (UniProt P68431, dimethyl-lysine at K4; fluorescent label (position not given))
[5] = target: fluorescently labeled histone H3 tail peptide, monomethylated at K9 (UniProt P68431, monomethyl-lysine at K9; fluorescent label (position not given))
[6] = target: fluorescently labeled histone H3 tail peptide, monomethylated at K4 (UniProt P68431, monomethyl-lysine at K4; fluorescent label (position not given))
[7] = target: fluorescently labeled histone H4 tail peptide, trimethylated at K20 (UniProt P62805, trimethyl-lysine at K20; fluorescent label (position not given))
[8] = target: fluorescently labeled histone H4 tail peptide, K20 unmodified (UniProt P62805, fluorescent label (position not given))
[9] = target: fluorescently labeled histone H4 tail peptide, monomethylated at K20 (UniProt P62805, monomethyl-lysine at K20; fluorescent label (position not given))
[10] = target: fluorescently labeled histone H3 tail peptide, dimethylated at K27 (UniProt P68431, dimethyl-lysine at K27; fluorescent label (position not given))

Kd [1]: 244 µM
Kd [2]: 550 µM
Kd [3]: 13 µM
Kd [4]: 145 µM
Kd [5]: 152 µM
Kd [6]: 126 µM
Kd [7]: 680 µM
Kd [8]: 480 µM
Kd [9]: 7 µM
Kd [10]: 185 µM
B1: human MBTD1 (Malignant Brain Tumor domain-containing protein 1) fragment composed of all four MBT repeats (residues 130-566) (domain or fragment)
chain: AKTKAAVSMEGFSWGNYINSNSFIAAPVTCFKHAPMGTCWGDISENVRVEVPNTDCSLPTKVFWIAGIVKLAGYNALLRYEGFENDSGLDFWCNICGSDIHPVGWCAASGKPLVPPRTIQHKYTNWKAFLVKRLTGAKTLPPDFSQKVSESMQYPFKPCMRVEVVDKRHLCRTRVAVVESVIGGRLRLVYEESEDRTDDFWCHMHSPLIHHIGWSRSIGHRFKRSDITKKQDGHFDTPPHLFAKVKEVDQSGEWFKEGMKLEAIDPLNLSTICVATIRKVLADGFLMIGIDGSEAADGSDWFCYHATSPSIFPVGFCEINMIELTPPRGYTKLPFKWFDYLRETGSIAAPVKLFNKDVPNHGFRVGMKLEAVDLMEPRLICVATVTRIIHRLLRIHFDGWEEEYDQWVDCESPDLYPVGWCQLTGYQLQPPASQSSR
